# Data from US20220229068A1, “DETECTION OF PROTEIN TO PROTEIN INTERACTIONS” (THE GOVERNING COUNCIL OF THE UNIVERSITY OF TORONTO, priority 2019, published 2022).
# Target: T1, FRB/FKBP1A interaction (Homo sapiens, UniProt P42345+P62942)
# T1 construct: expressed in transfected cells; host or cells: HEK 293 (also HeLa, PC9)
# Assay type: cell-based
# Conditions: FRB-IN/IC-FKBP1A in HEK 293, Western blot
# Description: Cell culture and treatment. […] These cells were grown in DMEM supplemented with 10% fetal calf serum (Life Technologies). […] For ELISA assay, cells were seeded in 96 well (Sarstedt AG & Co) or 384 well plates (Greiner Bio-One) with 15,000 (96 well) or 5,000 (384 well) cells per well. Cells were transfected with various plasmids with polyethylenimine (PEI) Max (Polysciences) [40]. Expression in HEK 293 Flp-In T-Rex cells was induced by treating the cells with tetracycline (1 μg/ml) for 6-16 hrs. […] Stable cell lines were created according to the manual of Flp-In T-REx (Invitrogen). Briefly, plasmid containing both bait and prey DNA and pOG44 plasmid (1:10 ratio) were cotransfected into HEK 293 Flp-In T-Rex cells.
# Western blot analysis and immunoprecipitation. Cells were lysed in buffer H (Triton X 100 1%, β-glycerophosphate pH7.3 50 mM, EGTA 1.5 mM, EDTA 1 mM, orthovanadate 0.1 mM, DTT 1 mM supplemented with protease inhibitors (Roche)). After centrifugation at 21,000×g for 10 min, the supernatants were mixed with Laemmli sample buffer, boiled at 95° C. for 3-5 min and subjected to Western blot analysis. For immunoprecipitations, supernatants (0.3 ml) were incubated with antibodies at 4° C. with rotation for one hour, followed by another hour of incubation with protein G sepharose beads (GE Healthcare). […]
# T1 sequence (P42345 with tags, fused parts or gaps): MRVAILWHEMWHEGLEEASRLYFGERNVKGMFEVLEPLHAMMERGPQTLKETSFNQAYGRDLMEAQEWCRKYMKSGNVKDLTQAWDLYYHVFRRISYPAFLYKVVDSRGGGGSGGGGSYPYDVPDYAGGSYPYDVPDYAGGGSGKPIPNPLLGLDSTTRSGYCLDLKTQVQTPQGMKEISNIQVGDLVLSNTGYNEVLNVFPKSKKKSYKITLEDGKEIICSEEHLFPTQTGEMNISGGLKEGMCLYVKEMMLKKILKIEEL
# T1 sequence (P62942 with tags, fused parts or gaps): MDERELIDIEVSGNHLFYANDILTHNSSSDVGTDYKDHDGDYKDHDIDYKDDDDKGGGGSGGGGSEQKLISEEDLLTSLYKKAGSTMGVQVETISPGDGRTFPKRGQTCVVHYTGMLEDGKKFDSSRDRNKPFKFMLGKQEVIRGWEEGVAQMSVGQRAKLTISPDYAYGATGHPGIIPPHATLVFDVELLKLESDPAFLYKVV
molecule,measurement,value
"C25 split intein: IC aa13-aa37 of WT IC; IN aa1-aa88 of WT IN + aa1-aa12 of WT IC (SEQ ID NO: 3, 4) (protein, Synthetic GP41-1 IN (C25); Synthetic GP41-1 IC (C25)) chain 1: CLDLKTQVQTPQGMKEISNIQVGDLVLSNTGYNEVLNVFPKSKKKSYKITLEDGKEIICSEEHLFPTQTGEMNISGGLKEGMCLYVKEMMLKKILKIEEL chain 2: DERELIDIEVSGNHLFYANDILTHN",self-association / splicing in the absence of rapamycin,minimal self-association
"WT form of GP41-1: natural GP41-1 split intein, split at C37 (SEQ ID NO: 1, 2) (protein, Synthetic GP41-1 IN (WT); Synthetic GP41-1 IC (WT)) chain 1: CLDLKTQVQTPQGMKEISNIQVGDLVLSNTGYNEVLNVFPKSKKKSYKITLEDGKEIICSEEHLFPTQTGEMNISGGLKEGMCLYVKE chain 2: MMLKKILKIEELDERELIDIEVSGNHLFYANDILTHN",self-association / splicing in the absence of rapamycin,relatively high level of FRB/FKBP1A splicing even in the absence of rapamycin treatment
